# Data taken from paper PMC10192418, “High-affinity peptides developed against calprotectin and their application as synthetic ligands in diagnostic assays” (Nature Communications, 2023).
# B1: linear peptide 3 [modified: 5(6)-carboxyfluorescein on the N-terminus; 5(6)-carboxyfluorescein on the N-terminus] / B-RCAL (BÜHLMANN recombinant calprotectin; His6-linker-S100A9-linker-S100A8) [human] (parent)
# chain 1: RSPESVAFPMFQSHWYSG
# chain 2: MTCKMSQLERNIETIINTFHQYSVKLGHPDTLNQGEFKELVRKDLQNFLKKENKNEKVIEHIMEDLDTNADKQLSFEEFIMLMARLTWASHEKMHEGDEGPGHHHKPGLGEGTPLEVLFQGPMLTELEKALNSIIDVYHKYSLIKGNFHAVYRDDLKKLLETECPQYIRKKGADVWFKELDINTDGAVNFQEFLILVIKMGVAAHKKSHEESHKE
# Variants of: B1
# Test: fluorescence polarisation
# Conditions: with B-RCAL (BÜHLMANN recombinant calprotectin; His6-linker-S100A9-linker-S100A8) [human]; one measurement
row,Variant,Kd
1,chain 1 Q12A,27 nM
2,chain 1 A7G,29 nM
3,chain 1 R1A,32 nM
4,chain 1 P3A,28 nM
5,chain 1 V6A,39 nM
